Results from patent US12404493B2, “Methods for the re-derivation of diverse pluripotent stem cell-derived brown fat cells” (AgeX Therapeutics, Inc., priority 2015, dated 2025).

Test system: hES cell-derived clonal embryonic progenitor cell lines
Experiment: Differentiation of clonal embryonic progenitor cell lines into BAT cells in HyStem beads, marker expression by Illumina microarray / qPCR
Assay type: cell-based, human
Conditions: 10 ng/mL BMP4 or 100 ng/mL BMP7 added to rosiglitazone/T3/CL-316,243 differentiation in HyStem beads
Experimental: Then, HyStem (1 ml, 1% w/v) is mixed with Gelin-S (1 ml, 1% w/v) immediately before use. […] Following complete gelation (20 min), Differentiation Medium is added to each well. […] Plates were then placed in a humidified incubator at 37° C. with ambient O2 and 10% CO2, and the cells were fed three-times weekly.
Total RNA was extracted directly from cells growing in 6-well plates or 10 cm tissue culture dishes using Qiagen RNeasy mini kits according to the manufacturer's instructions. RNA concentrations were measured using a Beckman DU530 or Nanodrop spectrophotometer and RNA quality was determined by denaturing agarose gel electrophoresis or using an Agilent 2100 bioanalyzer. […] Values of less than 120 relative fluorescence units (RFUs) were considered as nonspecific background signal.

| Molecule | cell viability |
| --- | --- |
| BMP7: Bone Morphogenetic Protein 7, member of the TGFβ superfamily (protein, UniProt P18075 293-431, looked up) Bone morphogenetic protein 7: STGSKQRSQNRSKTPKNQEALRMANVAENSSSDQRQACKKHELYVSFRDLGWQDWIIAPEGYAAYYCEGECAFPLNSYMNATNHAIVQTLVHFINPETVPKPCCAPTQLNAISVLYFDDSSNVILKKYRNMVVRACGCH | greater levels of cell viability |
| BMP4: Bone Morphogenetic Protein 4, member of the TGFβ superfamily (protein, UniProt P12644 293-408, looked up) Bone morphogenetic protein 4: SPKHHSQRARKKNKNCRRHSLYVDFSDVGWNDWIVAPPGYQAFYCHGDCPFPLADHLNSTNHAIVQTLVNSVNSSIPKACCVPTELSAISMLYLDEYDKVVLKNYQEMVVEGCGCR | greater levels of cell viability |
